Laboratory results published in US20030134779A1, “Method and composition for treatment and/or prevention of antibiotic-resistant microorganism infections” (priority 2002, published 2003).

Key:
[1] = tested on: β-lactamase activity of S. aureus SHY97-4320; test: β-lactamase activity, nitrocefin assay, bovine LF/LFC; type: cell-based
Description: (§1) The effects of sub-MICs of LF (1 mg/ml), LFC (32 and 64 μg/ml) alone or in combination with ampicillin (4μg/ml) or penicillin G (8 μg/ml) were evaluated on the β-lactamase activity of S. aureus strains SHY97-4320 and PC-1. The chromogenic cephalosporin nitrocefin (Becton Dickinson, Microbiology, Cockeysville, Md.) was used in a quantitative spectrophotometric assay. Bacterial cells were first exposed during 4 and 22-h to drugs in broth. The number of bacteria (cfu/ml) were determined and cells aliquots were centrifuged at each point in time. The pellets were suspended in 10 mM HEPES buffer (pH 7.4) to an OD415 nm of 1 for PC-1 and 2 for SHY97-4320. Nitrocefin (100 μM) was added to 100 μl of cells in a final volume of 1 ml. Hydrolysis was measured at 486 nm on spectrophotometer. β-lactamase activity was expressed as ΔO.D.486 nm/min and corrected for bacterial OD.

[2] = tested on: β-lactamase activity of S. aureus PC-1; test: as above; type: cell-based; details: LF 1 mg/ml (P<0.05); LFC 32 or 64 μg/ml (P<0.001)
β-lactamase activity of S. aureus PC-1, sequence (P00807 25-281): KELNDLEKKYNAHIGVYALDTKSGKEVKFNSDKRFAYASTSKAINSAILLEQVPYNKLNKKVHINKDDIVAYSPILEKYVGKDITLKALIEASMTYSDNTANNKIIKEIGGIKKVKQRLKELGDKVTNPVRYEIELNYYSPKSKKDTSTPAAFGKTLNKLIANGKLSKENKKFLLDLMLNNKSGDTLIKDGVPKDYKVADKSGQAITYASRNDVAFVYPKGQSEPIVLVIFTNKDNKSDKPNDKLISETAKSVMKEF
Description: as §1

S. aureus SHY97-4320 = test: SDS-PAGE protein profile of whole cells; type: cell-based, Staphylococcus aureus
Description: Staphylococcus aureus SHY97-4320 cells growth in MHB containing test compounds were suspended in electrophoresis sample buffer containing 2% sodium dodecyl sulfate (SDS) and 5% 2-mercaptoethanol to a final concentration of 0.1 g per ml. The samples were heated to 100° C. for 5 min before being loaded for electrophoresis on a discontinuous 0.1% SDS-polyacrylamide gel (SDS PAGE) with 6% polyacrylamide stacking gel and 10 or 12% polyacrylamide running gel. Gels were run on a Mini-Protean® II apparatus (Bio Rad laboratories, Richmond, Calif.). Protein profiles were visualised by staining with coomassie brilliant blue R-250 or by silver staining.

β-lactamase activity of S. aureus SHY97-4320, sequence (P00807 25-281): as above

B1: LF: bovine lactoferrin, 80-kDa iron-binding glycoprotein found in milk (protein, UniProt P24627 20-708, looked up)
Lactotransferrin: APRKNVRWCTISQPEWFKCRRWQWRMKKLGAPSITCVRRAFALECIRAIAEKKADAVTLDGGMVFEAGRDPYKLRPVAAEIYGTKESPQTHYYAVAVVKKGSNFQLDQLQGRKSCHTGLGRSAGWIIPMGILRPYLSWTESLEPLQGAVAKFFSASCVPCIDRQAYPNLCQLCKGEGENQCACSSREPYFGYSGAFKCLQDGAGDVAFVKETTVFENLPEKADRDQYELLCLNNSRAPVDAFKECHLAQVPSHAVVARSVDGKEDLIWKLLSKAQEKFGKNKSRSFQLFGSPPGQRDLLFKDSALGFLRIPSKVDSALYLGSRYLTTLKNLRETAEEVKARYTRVVWCAVGPEEQKKCQQWSQQSGQNVTCATASTTDDCIVLVLKGEADALNLDGGYIYTAGKCGLVPVLAENRKSSKHSSLDCVLRPTEGYLAVAVVKKANEGLTWNSLKDKKSCHTAVDRTAGWNIPMGLIVNQTGSCAFDEFFSQSCAPGADPKSRLCALCAGDDQGLDKCVPNSKEKYYGYTGAFRCLAEDVGDVAFVKNDTVWENTNGESTADWAKNLNREDFRLLCLDGTRKPVTEAQSCHLAVAPNHAVVSRSDRAAHVKQVLLHQQALFGKNGKNCPDKFCLFKSETKNLLFNDNTECLAKLGGRPTYEEYLGTEYVTAIANLKKCSTSPLLEACAFLTR
β-lactamase activity ([1]; LF 1 mg/ml alone): no β-lactamase activity
β-lactamase activity ([1]; LF 1 mg/ml in combination with 8 μg/ml penicillin G, P<0.001): a significant reduction of β-lactamase activity
β-lactamase activity [2]: moderately reduces β-lactamase activity
proteins of approximately 59, 42 and 27 kDa in protein profile (S. aureus SHY97-4320; 1 mg/ml LF in combination to 8 μg/ml penicillin G): absent
proteins of approximately 59, 42 and 27 kDa in protein profile (S. aureus SHY97-4320; compound alone: 8 μg/ml penicillin G or 1 mg/ml LF, 4-h of growth): absent
